In patent publication US20220177587A1, “METHODS AND USES OF VARIANT CD80 FUSION PROTEINS AND RELATED CONSTRUCTS” (Alpine Immune Sciences, Inc., priority 2018, published 2022):
Residue numbers refer to the chain shown, from its start. Names and notes keep the numbering of the source.

B1: variant CD80 IgV-Fc Q33L/E35D/M43V/M47I/A71G (Fc fusion)
chain: VIHVTKEVKEVATLSCGHNVSVEELAQTRIYWLKDKKMVLTMVSGDINIWPEYKNRTIFDITNNLSIVILGLRPSDEGTYECVVLKYEKDAFKREHLAEVTLSVKAD
B2: variant CD80 IgV-Fc H18L/V22A/E35D/M47L/N48T/L85Q (Fc fusion)
chain: B1 chain with H18L, V22A, L33Q, V43M, I47L, N48T, G71A, L85Q
B3: variant CD80 IgV-Fc V22A/R29H/E35D/D46E/M47I (Fc fusion)
chain: B1 chain with V22A, R29H, L33Q, V43M, D46E, G71A
B4: variant CD80 IgV-Fc Q27H/Q33L/E35D/M47V/N55D/L85Q/K89N (Fc fusion)
chain: B1 chain with Q27H, V43M, I47V, N55D, G71A, L85Q, K89N
B5: variant CD80 IgV-Fc H18Y/Y31H/E35D/M47V/A71G/L85Q (Fc fusion)
chain: B1 chain with H18Y, Y31H, L33Q, V43M, I47V, L85Q
B6: variant CD80 IgV-Fc Q33L/E35D/M43I/L85Q/R94W (Fc fusion)
chain: B1 chain with V43I, I47M, G71A, L85Q, R94W
B7: variant CD80 IgV-Fc E35D/M47V/A71G/L85M/L97Q (Fc fusion)
chain: B1 chain with L33Q, V43M, I47V, L85M, L97Q
B8: variant CD80 IgV-Fc E35D/D46E/M47V/L97Q (Fc fusion)
chain: B1 chain with L33Q, V43M, D46E, I47V, G71A, L97Q
B9: variant CD80 IgV-Fc H18Y/V20A/Q33L/E35D/M47V/Y53F (Fc fusion)
chain: B1 chain with H18Y, V20A, V43M, I47V, Y53F, G71A
B10: variant CD80 IgV-Fc Q33L/E35D/M47L/A71G/F92S (Fc fusion)
chain: B1 chain with V43M, I47L, F92S
B11: variant CD80 IgV-Fc H18Y/E35D/V68M/L97Q (Fc fusion)
chain: B1 chain with H18Y, L33Q, V43M, I47M, V68M, G71A, L97Q
B12: variant CD80 IgV-Fc Q33L/E35D/N48K/L85Q/L97Q (Fc fusion)
chain: B1 chain with V43M, I47M, N48K, G71A, L85Q, L97Q
B13: variant CD80 IgV-Fc E35D/M47I/E77A/L85Q/R94W (Fc fusion)
chain: B1 chain with L33Q, V43M, G71A, E77A, L85Q, R94W
B14: variant CD80 IgV-Fc Q33K/E35D/D46V/L85Q (Fc fusion)
chain: B1 chain with L33K, V43M, D46V, I47M, G71A, L85Q
B15: variant CD80 IgV-Fc Q33L/E35D/M47L/V68M/L85Q/E88D (Fc fusion)
chain: B1 chain with V43M, I47L, V68M, G71A, L85Q, E88D
B16: variant CD80 IgV-Fc Y31S/E35D/M47L/T79L/E88G (Fc fusion)
chain: B1 chain with Y31S, L33Q, V43M, I47L, G71A, T79L, E88G
B17: CD80 V4M/L70Q/A91G/I118V/T120S/T130A/K169E ECD-Fc (Fc fusion)
chain: VIHMTKEVKEVATLSCGHNVSVEELAQTRIYWQKEKKMVLTMMSGDMNIWPEYKNRTIFDITNNLSIVIQALRPSDEGTYECVVLKYEKDGFKREHLAEVTLSVKADFPTPSISDFEVPSSNIRRIICSASGGFPEPHLSWLENGEELNAINTTVSQDPETELYAVSSELDFNMTTNHSFMCLIKYGHLRVNQTFNWNTTKQEHFPDN
B18: CD80 I67T/L70Q/A91G/I118V/T120S ECD-Fc (Fc fusion)
chain: B17 chain with M4V, I67T, A130T, E169K, N196H
B19: CD80 A91G/L102S ECD-Fc (Fc fusion)
chain: B17 chain with M4V, Q70L, L102S, V118I, S120T, A130T, E169K
B20: CD80 K37E/F59S/L70Q/A91G/T120S/T130A ECD-Fc (SEQ ID NO 1397) (Fc fusion)
chain: B17 chain with M4V, K37E, F59S, E169K, K185E
B21: CD80 S44P/L70Q/A91G/T130A ECD-Fc (Fc fusion)
chain: B17 chain with M4V, S44P, V118I, S120T, E169K
B22: CD80 A91G/S103P ECD-Fc (Fc fusion)
chain: B17 chain with M4V, Q70L, S103P, V118I, S120T, A130T, E169K
B23: variant CD80 IgV-Fc E35D/M47L (Fc fusion)
chain: B1 chain with L33Q, V43M, I47L, G71A
B24: variant CD80 IgV-Fc E35D/N48K/V68M (Fc fusion)
chain: B1 chain with L33Q, V43M, I47M, N48K, V68M, G71A
B25: variant CD80 IgV-Fc E35D/M47V/V68M/K89N (Fc fusion)
chain: B1 chain with L33Q, V43M, I47V, V68M, G71A, K89N
B26: variant CD80 IgV-Fc E35D/M47V/N48K (Fc fusion)
chain: B1 chain with L33Q, V43M, I47V, N48K, G71A
B27: variant CD80 IgV-Fc E35D/D46V/V68M (Fc fusion)
chain: B1 chain with L33Q, V43M, D46V, I47M, V68M, G71A
B28: variant CD80 IgV-Fc E35D/D46V/M47L (Fc fusion)
chain: B1 chain with L33Q, V43M, D46V, I47L, G71A
B29: variant CD80 IgV-Fc E35D/M47V/N48K/V68M (Fc fusion)
chain: B1 chain with L33Q, V43M, I47V, N48K, V68M, G71A
B30: variant CD80 IgV-Fc E35D/D46V/L85Q (Fc fusion)
chain: B1 chain with L33Q, V43M, D46V, I47M, G71A, L85Q

Each binder was assayed against human PD-L1 (human) (UniProt Q9NZQ7) (assay: flow cytometry; binding to PD-L1 cells against binding of the same variant to CD28 cells).
Sequence of human PD-L1 (human) (Q9NZQ7 19-290): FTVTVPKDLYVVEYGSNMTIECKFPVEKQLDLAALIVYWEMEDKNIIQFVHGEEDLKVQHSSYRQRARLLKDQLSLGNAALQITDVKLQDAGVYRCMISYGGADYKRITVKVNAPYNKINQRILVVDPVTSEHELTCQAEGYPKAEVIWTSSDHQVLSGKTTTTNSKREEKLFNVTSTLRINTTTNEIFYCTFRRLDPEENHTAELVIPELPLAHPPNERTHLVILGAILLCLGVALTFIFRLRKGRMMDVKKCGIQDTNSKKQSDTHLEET

Row | Ratio of PDL1:CD28 | Binder
1 | 275 | B1
2 | 226 | B2
3 | 79 | B3
4 | 55 | B4
5 | 285 | B5
6 | 107 | B6
7 | 182 | B7
8 | 52 | B8
9 | 463 | B9
10 | 77 | B10
11 | 407 | B11
12 | 162 | B12
13 | 238 | B13
14 | 104 | B14
15 | 476 | B15
16 | 140 | B16

The binders below were run against human PD-L1 (human) (UniProt Q9NZQ7) (assay: flow cytometry, CHO cells expressing huPD-L1; MFI ratio to WT CD80 ECD-Fc (R&D)).

Row | Fold change to WT [fold] | Binder
17 | 9.82 | B1
18 | 12.3 | B2
19 | 3.2 | B3
20 | 1.86 | B4
21 | 9.61 | B5
22 | 3.65 | B6
23 | 7.77 | B7
24 | 2.45 | B8
25 | 15.2 | B9
26 | 3.53 | B10
27 | 15.3 | B11
28 | 5.69 | B12
29 | 8.12 | B13
30 | 3.36 | B14
31 | 15.8 | B15
32 | 4.9 | B16

What follows are binders tested against human PD-L1 (human) (UniProt Q9NZQ7) (assay: flow cytometry, Expi293F cells transfected with PD-L1).

Row | MFI [MFI] | parental ratio | Binder
33 | 6 | 0.09 | B17
34 | 5 | 0.08 | B18
35 | 5 | 0.08 | B19
36 | 6 | 0.08 | B20
37 | 5 | 0.07 | B21
38 | 9 | 0.13 | B22

The binders below were run against human CTLA-4 (human) (UniProt P16410) (assay: flow cytometry, Expi293F cells transfected with CTLA-4).
Sequence of human CTLA-4 (human) (P16410 36-223): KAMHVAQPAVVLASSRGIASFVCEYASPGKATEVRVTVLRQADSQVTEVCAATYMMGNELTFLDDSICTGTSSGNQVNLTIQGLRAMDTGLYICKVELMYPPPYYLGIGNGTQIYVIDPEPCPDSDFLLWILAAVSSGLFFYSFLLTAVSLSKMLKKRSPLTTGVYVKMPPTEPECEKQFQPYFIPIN

Row | MFI [MFI] | parental ratio | Binder
39 | 263 | 1.26 | B17
40 | 160 | 0.77 | B18
41 | 6 | 0.03 | B19
42 | 74 | 0.36 | B20
43 | 134 | 0.64 | B21

These binders were tested against CD28 (human) (UniProt P10747) (assay: flow cytometry, Expi293F cells transfected with CD28).

Row | MFI [MFI] | parental ratio | Binder
44 | 89 | 0.94 | B17
45 | 98 | 1.03 | B18
46 | 6 | 0.06 | B19
47 | 20 | 0.21 | B20
48 | 88 | 0.92 | B21
49 | 39 | 0.41 | B22

These binders were tested against human CTLA-4 (human) (UniProt P16410) (assay: flow cytometry, CHO cells expressing huCTLA-4).

Row | MFI at 33.3 nM [MFI] | Binder
50 | 48000 | B23
51 | 33600 | B24
52 | 29500 | B25
53 | 47400 | B26
54 | 31200 | B27
55 | 45000 | B28
56 | 32900 | B29
57 | 48000 | B30

These binders were tested against CD28 (human) (UniProt P10747) (assay: flow cytometry, Jurkat/IL2 reporter cells (endogenous CD28)).

Row | MFI at 33.3 nM [MFI] | Binder
58 | 284 | B1
59 | 434 | B2
60 | 323 | B3
61 | 269 | B4
62 | 268 | B5
63 | 272 | B6
64 | 339 | B7
65 | 371 | B8
66 | 260 | B9
67 | 366 | B10
68 | 299 | B11
69 | 279 | B12
70 | 272 | B13
71 | 257 | B14
72 | 264 | B15
73 | 278 | B16

What follows are binders tested against CD28 (human) (UniProt P10747) (assay: flow cytometry, Jurkat/IL2 reporter cells (CD28)).

Row | MFI at 33.3 nM [MFI] | Binder
74 | 411 | B23
75 | 642 | B24
76 | 196 | B30

The binders below were run against human CTLA-4 (human) (UniProt P16410) (assay: flow cytometry, CHO cells expressing huCTLA4).

Row | MFI at 33.3 nM [MFI] | Binder
77 | 14000 | B1
78 | 374000 | B2
79 | 77400 | B3
80 | 56100 | B4
81 | 3840 | B5
82 | 1080 | B6
83 | 239000 | B7
84 | 305000 | B8
85 | 2880 | B9
86 | 2110 | B10
87 | 173000 | B11
88 | 1180 | B12
89 | 247000 | B13
90 | 8510 | B14
91 | 3530 | B15
92 | 1100 | B16

These binders were tested against human PD-L1 (human) (UniProt Q9NZQ7) (assay: flow cytometry, CHO cells expressing huPD-L1).

Row | MFI at 33.3 nM [MFI] | Binder
93 | 7530 | B23
94 | 78000 | B1
95 | 98100 | B2
96 | 25400 | B3
97 | 14800 | B4
98 | 76400 | B5
99 | 29000 | B6
100 | 21800 | B25
101 | 61700 | B7
102 | 4850 | B26
103 | 19500 | B8
104 | 26100 | B27
105 | 121000 | B9
106 | 28000 | B10
107 | 122000 | B11
108 | 45200 | B12
109 | 7990 | B28
110 | 64500 | B13
111 | 26700 | B14
112 | 126000 | B15
113 | 23500 | B29
114 | 38900 | B16
115 | 4040 | B30

Each binder was assayed against human CTLA-4 (human) (UniProt P16410) (assay: flow cytometry, CHO cells expressing huCTLA4; MFI ratio to WT CD80 ECD-Fc (R&D)).

Row | Fold change to WT CD80 [fold] | Binder
116 | 0.08 | B1
117 | 2.09 | B2
118 | 0.43 | B3
119 | 0.31 | B4
120 | 0.02 | B5
121 | 0.01 | B6
122 | 1.34 | B7
123 | 1.71 | B8
124 | 0.02 | B9
125 | 0.01 | B10
126 | 0.97 | B11
127 | 0.01 | B12
128 | 1.38 | B13
129 | 0.05 | B14
130 | 0.02 | B15
131 | 0.01 | B16

The binders below were run against CD28 (human) (UniProt P10747) (assay: flow cytometry, Jurkat/IL2 reporter cells (endogenous CD28); MFI ratio to WT CD80 ECD-Fc (R&D)).

Row | Fold change to WT [fold] | Binder
132 | 0.04 | B1
133 | 0.06 | B2
134 | 0.04 | B3
135 | 0.04 | B4
136 | 0.04 | B5
137 | 0.04 | B6
138 | 0.04 | B7
139 | 0.05 | B8
140 | 0.03 | B9
141 | 0.05 | B10
142 | 0.04 | B11
143 | 0.04 | B12
144 | 0.04 | B13
145 | 0.03 | B14
146 | 0.03 | B15
147 | 0.04 | B16
